Results from article PMC10115844, “The structural basis of tRNA recognition by arginyl-tRNA-protein transferase”.

Key:
[1] = biological target: T1, scATE1 (arginyl-tRNA-protein transferase 1) (Saccharomyces cerevisiae) (UniProt P16639); assay: EMSA; details: EMSA: 20 mM Tris-HCl pH 7.5, 150 mM NaCl, 5 mM DTT, on ice (tRNAArg: 0.001% NP-40, 30 °C), MST: 10 mM Tris, 5 mM Na phosphate pH 7.0, 100 mM NaCl, 3 mM DTT …
T1 sequence: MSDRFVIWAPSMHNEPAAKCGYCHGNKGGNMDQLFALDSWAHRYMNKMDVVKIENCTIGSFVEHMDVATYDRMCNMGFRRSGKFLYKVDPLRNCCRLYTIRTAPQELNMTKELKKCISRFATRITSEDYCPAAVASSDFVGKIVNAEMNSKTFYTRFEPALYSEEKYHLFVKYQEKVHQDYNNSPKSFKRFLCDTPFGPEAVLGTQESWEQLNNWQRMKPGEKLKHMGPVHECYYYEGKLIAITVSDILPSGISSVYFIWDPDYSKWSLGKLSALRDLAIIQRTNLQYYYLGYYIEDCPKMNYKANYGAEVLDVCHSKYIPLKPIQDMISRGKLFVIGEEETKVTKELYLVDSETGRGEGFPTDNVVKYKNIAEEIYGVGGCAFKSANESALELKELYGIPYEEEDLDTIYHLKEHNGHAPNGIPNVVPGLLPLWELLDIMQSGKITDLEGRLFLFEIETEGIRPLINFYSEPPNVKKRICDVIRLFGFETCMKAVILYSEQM

[2] = biological target: T2, scATE1 (arginyl-tRNA-protein transferase 1) (Saccharomyces cerevisiae, UniProt P16639 1-503); assay: cryoEM structure; co-purified complex, 3.7 Å map; EMD-29638; EMSA: 20 mM Tris-HCl pH 7.5, 150 mM NaCl, 5 mM DTT, on ice (tRNAArg: 0.001% NP-40, 30 °C); MST: 10 mM Tris, 5 mM Na phosphate pH 7.0, 100 mM NaCl, 3 mM DTT, 0.08% Tween-20; fluorescence: 20 mM Tris pH 7.5, 125 mM NaCl, 3 mM DTT, 27 °C; details: protein: recombinant; tags: N-terminal GST (pGEX 6p-1), cleaved with PreScission; label: none; tRNA cloverleaf
T2 sequence: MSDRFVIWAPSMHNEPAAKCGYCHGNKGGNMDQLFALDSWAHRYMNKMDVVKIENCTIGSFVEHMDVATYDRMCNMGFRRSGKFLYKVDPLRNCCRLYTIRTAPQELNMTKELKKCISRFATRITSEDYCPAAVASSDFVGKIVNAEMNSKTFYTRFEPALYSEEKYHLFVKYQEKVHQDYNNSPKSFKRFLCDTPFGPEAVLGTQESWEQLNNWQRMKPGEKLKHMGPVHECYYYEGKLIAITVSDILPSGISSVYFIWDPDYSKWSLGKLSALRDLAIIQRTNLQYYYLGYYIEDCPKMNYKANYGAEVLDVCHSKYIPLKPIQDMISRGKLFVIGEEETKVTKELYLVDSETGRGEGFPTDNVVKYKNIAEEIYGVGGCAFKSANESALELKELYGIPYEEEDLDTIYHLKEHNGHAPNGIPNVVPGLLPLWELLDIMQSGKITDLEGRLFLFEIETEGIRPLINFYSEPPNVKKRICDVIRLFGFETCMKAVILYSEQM

[3] = biological target: T2, scATE1 (arginyl-tRNA-protein …); assay: MST competition; displacement of FAM-DNA, 30 µM ATE1; EMSA: 20 mM Tris-HCl pH 7.5, 150 mM NaCl, 5 mM DTT, on ice (tRNAArg: 0.001% NP-40, 30 °C); MST: 10 mM Tris, 5 mM Na phosphate pH 7.0, 100 mM NaCl, 3 mM DTT, 0.08% Tween-20; fluorescence: 20 mM Tris pH 7.5, 125 mM NaCl, 3 mM DTT, 27 °C; details: protein: recombinant; tags: N-terminal GST (pGEX 6p-1), cleaved with PreScission; label: none (SYBR green stain); hairpin

## E. coli tRNALys acceptor arm
[1]; smeary bands, possibly non-specific
  Kd: 4000 nM

## full-length tRNALys, in vitro transcribed
[1]; 0.25 µM tRNA, affinity similar to acceptor arm alone
  binding signal (fold weaker than tRNAArg): 20

## human tRNAArg A + T arms
[1]
  binding signal (fold higher affinity from A + T arms): 4

## human tRNAArg acceptor (A) arm
[1]; 2-fold stronger than E. coli acceptor arm
  Kd: 1500 nM

## human tRNAArg, in vitro transcribed
[1]; 30 °C, 0.001% NP-40, 1 nM RNA, apparent Kd
  Kd: 155 nM

B1: tRNAArg (argU) in the cryoEM complex (structured_RNA)
RNA: GCGCCCUUAGCUCAGUUGGAUAGAGCAACGACCUUCUAAGUCGUGGGCCGCAGGUUCGAAUCCUGCAGGGCGCGCCA
modifications: native modifications possible, not stated
[2]
  binding result: binds

## GCAUCCGCUACGAACGGAUGCACCA (structured_RNA) [E. coli tRNAArg acceptor arm miniRNA hairpin]
[3]
  Ki: ~3600 nM
